Biological target: the molecule itself
Assay: single-molecule photobleaching step counting on DNA tightropes

B1: cJun bZIP region fused to mNeonGreen (domain or fragment)
chain: RIKAERKRMRNRIAASKCRKRKLERIARLEEKVKTLKAQNSELASTANMLREQVAQLKQKVMNH
- stoichiometry N: 2
